The record followed here is article PMC11788743, “Biochemical characterization of the human ubiquitous glucose‐6‐phosphatase in neutrophil granulocytes” (FEBS Open Bio, 2024).

Substrate in series [1]: O=C(O)[C@H](O)[C@@H](O)[C@H](O)[C@H](O)COP(=O)(O)O
The series is described as follows: inorganic phosphate release (molybdate), Michaelis-Menten fit, GFP control subtracted. It is filed as biochemical, Homo sapiens. Particulars: 50 mM Mops pH 6.5, 25 mM CaCl2, 0.5 mM MnCl2, 2.5 mM EDTA, 37 °C, alamethicin, apparent, cell lysate.

Substrate in series [2]: O=P(O)(O)OC[C@@H](O)[C@@H](O)[C@H](O)[C@@H](O)CO
Described as above. Type of series: biochemical, Homo sapiens. Particulars: 50 mM Mops pH 6.5, 25 mM CaCl2, 0.5 mM MnCl2, 2.5 mM EDTA, 37 °C, alamethicin, apparent, cell lysate.

B1: human recombinant G6PC3 (glucose-6-phosphatase-β) (Homo sapiens) (protein)
chain: MESTLGAGIVIAEALQNQLAWLENVWLWITFLGDPKILFLFYFPAAYYASRRVGIAVLWISLITEWLNLIFKWFLFGDRPFWWVHESGYYSQAPAQVHQFPSSCETGPGSPSGHCMITGAALWPIMTALSSQVATRARSRWVRVMPSLAYCTFLLAVGLSRIFILAHFPHQVLAGLITGAVLGWLMTPRVPMERELSFYGLTALALMLGTSLIYWTLFTLGLDLSWSISLAFKWCERPEWIHVDSRPFASLSRDSGAALGLGIALHSPCYAQVRRAQLGNGQKIACLVLAMGLLGPLDWLGHPPQISLFYIFNFLKYTLWPCLVLALVPWAVHMFSAQEAPPIHSS
notes: full-length G6PC3 cDNA (universal human cDNA) in pEGFP-N1 (XhoI/EcoRI), GFP-G6PC3 fusion, overexpressed in HEK293T; alamethicin-permeabilized cell lysate
By Km is commonly meant the concentration of substrate that gives half-maximal velocity. By Vmax is commonly meant the top rate of the reaction or transport when substrate is in excess. On to B1, for which, in series [1], the Km stood at 8.22 ± 1.4 mM and the Vmax worked out at 0.19 µmol/min/mg. For the same protein, in series [2], the Km was 5.11 ± 0.7 mM and the Vmax was found to be 1.66 µmol/min/mg.
